Experimental data: publication PMC8901441, “The interplay between BAX and BAK tunes apoptotic pore growth to control mitochondrial-DNA-mediated inflammation” (Molecular Cell, 2022)
Each block holds one molecule with its values, some of them ahead of it.

Experiments:
[1] = target: BAK-488 (full-length mouse BAK L192K, F193S, Y196D, C154S, labelled with Atto 488) (mouse) (UniProt O08734); assay: single-molecule TIRF brightness (stoichiometry) analysis; 1, 5 or 10 nM labelled protein incubated 1 h with EPC:CL 8:2 LUVs (150 mM NaCl, 10 mM HEPES/KOH, pH 7.4), activated by heat (43°C), or 1 nM BAK-488 by 2 nM cBid; proteoliposomes diluted with LUVs and fused into supported lipid bilayers on glass; corrected for partial labelling
[2] = target: the molecule itself; assay: as above

stoichiometry N [1]: 2
Molecule: BAK-488 (full-length mouse BAK L192K, F193S, Y196D, C154S, labelled with Atto 488) (from UniProt O08734 1-209) (natural protein)

B1: BAX-488 (single-cysteine, full-length human BAX S4C, C62S, C126S, labelled with Atto 488) (natural protein, UniProt Q07812 1-192, looked up)
chain: MDGCGEQPRGGGPTSSEQIMKTGALLLQGFIQDRAGRMGGEAPELALDPVPQDASTKKLSESLKRIGDELDSNMELQRMIAAVDTDSPREVFFRVAADMFSDGNFNWGRVVALFYFASKLVLKALSTKVPELIRTIMGWTLDFLRERLLGWIQDQGGWDGLLSYFGTPTWQTVTIFVAGVLTASLTIWKKMG
modifications: Atto 488 covalently attached to the single cysteine
notes: BAX, human, single-cysteine mutant (S4C, C62S, C126S); Plasmid pTYB1_hBAX-S4C,C62S, C126S from a previous study (doi 10.1038/ncomms9042); Labelling efficiency 84%; also called hBAX-S4C,C62S, C126S
stoichiometry N [2]: ≤ 10
